Assay results: PMC11098961

Molecular target: PME-1 (UniProt Q9Y570)
Test: FLAG-PP2Ac immunoprecipitation, PME-1 blot
Conditions: reference: wild type

binding against the reference (sites S225,T227)	binding against the reference (sites S285)	Substance
weaker	–	PP2Ac (from UniProt P67775) S225A/T227A
–	weaker	PP2Ac (from UniProt P67775) S285A
